Literature values, collected in patent US7662384B2, “Use of anti-α5β1 antibodies to inhibit cancer cell proliferation” (Facet Biotech Corporation, priority 2004, dated 2010).
Like-named read-outs stand apart in the source and are kept apart here.

What was measured:
angiogenesis [1] = conditions: monkey eye model; cited from earlier work
angiogenesis [2] = conditions: rabbit eye model; cited from earlier work

B1: F200: Fab fragment derived from M200 (antibody, chains of the INN, looked up, V domains shown)
VH: QVQLKESGPGLVAPSQSLSITCTISGFSLTDYGVHWVRQPPGKGLEWLVVIWSDGSSTYNSALKSRMTIRKDNSKSQVFLIMNSLQTDDSAMYYCARHGTYYGMTTTGDALDYWGQGTSVTVSS
VL: QIVLTQSPAIMSASLGERVTMTCTASSSVSSNYLHWYQQKPGSAPNLWIYSTSNLASGVPARFSGSGSGTSYSLTISSMEAEDAATYYCHQYLRSPPTFGGGTKLEIK
modifications: Fab
notes: Fab fragment derived from M200
in vivo anti-angiogenic efficacy (angiogenesis [1]): in vivo anti-angiogenic efficacy | in vivo anti-angiogenic efficacy (angiogenesis [2]): in vivo anti-angiogenic efficacy
